{
  "source": "paper doi:10.1101/2025.10.17.682828",
  "key": {"[1]": {"biological_target": "Human HSP90β (human) (UniProt P08238)", "assay": "cryo-EM structure"}, "[2]": {"biological_target": "Human HSP90β (human) (UniProt P08238)", "assay": "cryo-EM structure", "remark": "listed apart in the source"}},
  "note": "Read-outs that look alike come from different tables or passages of the source.",
  "data": [
    {"substance": "Human HSP90β, P08238 3-724 (natural protein; other documents disagree on this pair)", "values": [
      {"measurement": "stoichiometry N", "setting": "[1]", "result": 2},
      {"measurement": "stoichiometry N", "setting": "[2]", "result": 2}
    ]}
  ]
}
